Consider four molecules from paper PMC8766458, “Deciphering the mechanism of processive ssDNA digestion by the Dna2-RPA ensemble” (Nature Communications, 2022).

Numbering of substitutions follows the chain as printed. In names and notes the source's numbering stands.

What all share (conditions): both partners purified
Experiment [1] addresses T1, dna2-D657A (nuclease-dead Dna2) (S. cerevisiae, UniProt P38859 1-1522, D657A).
T1 construct: Dna2, Saccharomyces cerevisiae, nuclease-dead version; Purified as the other Dna2 variants; FLAG tag used for quantum-dot labelling in DNA Curtains; also called dna2-D657A mutant; source: over-expressed in yeast, purified (Ni-NTA, anti-FLAG-M2 resin)
The experiment is described as follows: native gel or EMSA; ternary complex of dna2-D657A variants (20 nM), Rfa1 truncations or mutants (20 nM) and 5 nM dT(20) ssDNA; 150 mM KCl, 30 °C, 4% native gel.

Experiment [2] concerns the target T2, RPA–Y193A–GFP (RPA complex harboring rfa1–Y193A) (yeast (S. cerevisiae), UniProt P22336 1-621; P26754 1-273; P26755 1-122, Y193A).
T2 construct: Rfa1, large subunit of yeast RPA, with Y193A in the linker between Rfa1-N and DBD-A; Rfa2, middle subunit of yeast RPA; Rfa3, small subunit of yeast RPA; GFP is fused to one subunit and kept in the assay; preparation not described; also called RPA complex harboring rfa1–Y193A mutant; copies: + +
The experiment is described as follows: single-molecule DNA Curtains (TIRF microscopy); quantum-dot labelled Dna2 variants on ssDNA coated with RPA–GFP variants; NaCl concentration of these results not told in the text (conditions in Supplementary Table 1).

Another experiment deals with T3, RPA–GFP (yeast (S. cerevisiae), UniProt P22336 1-621; P26754 1-273; P26755 1-122).
T3 construct: Rfa1, large subunit of yeast RPA; Rfa2, middle subunit of yeast RPA; Rfa3, small subunit of yeast RPA; GFP is fused to one subunit and kept in the assay (it is imaged); Coats the ssDNA of the DNA Curtains; also called RPA (green) on ssDNA; copies: + +
T3 sequence (P26754 whole entry, chain 2 of 2, the tested form may be a part): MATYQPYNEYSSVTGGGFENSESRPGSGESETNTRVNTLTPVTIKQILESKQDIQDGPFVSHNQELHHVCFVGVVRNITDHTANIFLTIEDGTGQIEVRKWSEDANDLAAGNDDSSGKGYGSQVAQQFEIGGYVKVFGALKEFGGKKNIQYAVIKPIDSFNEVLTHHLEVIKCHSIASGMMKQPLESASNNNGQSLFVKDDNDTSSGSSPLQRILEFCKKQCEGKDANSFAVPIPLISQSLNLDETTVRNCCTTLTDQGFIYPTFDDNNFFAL
T3 sequence (P26755 whole entry, chain 3 of 2, the tested form may be a part): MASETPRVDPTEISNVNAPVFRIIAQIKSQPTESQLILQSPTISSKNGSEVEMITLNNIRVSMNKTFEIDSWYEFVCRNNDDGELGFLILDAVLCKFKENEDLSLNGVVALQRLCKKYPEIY
Described as above.

B1: Rfa1-N-DBD-A/B (Rfa1–NAB, amino acid 1–435) (domain or fragment, yeast (S. cerevisiae), UniProt P22336 1-435, looked up)
chain: MSSVQLSRGDFHSIFTNKQRYDNPTGGVYQVYNTRKSDGANSNRKNLIMISDGIYHMKALLRNQAASKFQSMELQRGDIIRVIIAEPAIVRERKKYVLLVDDFELVQSRADMVNQTSTFLDNYFSEHPNETLKDEDITDSGNVANQTNASNAGVPDMLHSNSNLNANERKFANENPNSQKTRPIFAIEQLSPYQNVWTIKARVSYKGEIKTWHNQRGDGKLFNVNFLDTSGEIRATAFNDFATKFNEILQEGKVYYVSKAKLQPAKPQFTNLTHPYELNLDRDTVIEECFDESNVPKTHFNFIKLDAIQNQEVNSNVDVLGIIQTINPHFELTSRAGKKFDRRDITIVDDSGFSISVGLWNQQALDFNLPEGSVAAIKGVRVTDFGGKSLSMGFSSTLIPNPEIPEAYALKGWYDSKGRNANFITLKQEPGMGGQ
notes: Rfa1 of yeast RPA, residues 1-435 (N, DBD-A and DBD-B domains); The 6xHis tag can optionally be removed by TEV protease; also called NAB polypeptide; pHis–Rfa1 1–435; source: E. coli BL21 codon plus, purified (Ni-NTA, Superdex 200)
Turning to B1, the binding result in experiment [1] is reported as “binds”.

B2: rfa1–NAB–K45E (pHis-Rfa1 1-435 K45E) (domain or fragment, yeast (S. cerevisiae), UniProt P22336 1-435, looked up)
chain: B1 chain with K45E
notes: Rfa1 of yeast RPA, residues 1-435, charge reversal in the basic cleft of Rfa1-N; also called rfa1–t11; rfa1–K45E; source: E. coli BL21 codon plus, purified (Ni-NTA, Superdex 200)
As to B2, in experiment [1], the binding result is listed as “binds”.

B3: Dna2 (wild type, FLAG-His6-tagged) (enzyme, S. cerevisiae, UniProt P38859 1-1522, looked up)
chain: MPGTPQKNKRSASISVSPAKKTEEKEIIQNDSKAILSKQTKRKKKYAFAPINNLNGKNTKVSNASVLKSIAVSQVRNTSRTKDINKAVSKSVKQLPNSQVKPKREMSNLSRHHDFTQDEDGPMEEVIWKYSPLQRDMSDKTTSAAEYSDDYEDVQNPSSTPIVPNRLKTVLSFTNIQVPNADVNQLIQENGNEQVRPKPAEISTRESLRNIDDILDDIEGDLTIKPTITKFSDLPSSPIKAPNVEKKAEVNAEEVDKMDSTGDSNDGDDSLIDILTQKYVEKRKSESQITIQGNTNQKSGAQESCGKNDNTKSRGEIEDHENVDNQAKTGNAFYENEEDSNCQRIKKNEKIEYNSSDEFSDDSLIELLNETQTQVEPNTIEQDLDKVEKMVSDDLRIATDSTLSAYALRAKSGAPRDGVVRLVIVSLRSVELPKIGTQKILECIDGKGEQSSVVVRHPWVYLEFEVGDVIHIIEGKNIENKRLLSDDKNPKTQLANDNLLVLNPDVLFSATSVGSSVGCLRRSILQMQFQDPRGEPSLVMTLGNIVHELLQDSIKYKLSHNKISMEIIIQKLDSLLETYSFSIIICNEEIQYVKELVMKEHAENILYFVNKFVSKSNYGCYTSISGTRRTQPISISNVIDIEENIWSPIYGLKGFLDATVEANVENNKKHIVPLEVKTGKSRSVSYEVQGLIYTLLLNDRYEIPIEFFLLYFTRDKNMTKFPSVLHSIKHILMSRNRMSMNFKHQLQEVFGQAQSRFELPPLLRDSSCDSCFIKESCMVLNKLLEDGTPEESGLVEGEFEILTNHLSQNLANYKEFFTKYNDLITKEESSITCVNKELFLLDGSTRESRSGRCLSGLVVSEVVEHEKTEGAYIYCFSRRRNDNNSQSMLSSQIAANDFVIISDEEGHFCLCQGRVQFINPAKIGISVKRKLLNNRLLDKEKGVTTIQSVVESELEQSSLIATQNLVTYRIDKNDIQQSLSLARFNLLSLFLPAVSPGVDIVDERSKLCRKTKRSDGGNEILRSLLVDNRAPKFRDANDDPVIPYKLSKDTTLNLNQKEAIDKVMRAEDYALILGMPGTGKTTVIAEIIKILVSEGKRVLLTSYTHSAVDNILIKLRNTNISIMRLGMKHKVHPDTQKYVPNYASVKSYNDYLSKINSTSVVATTCLGINDILFTLNEKDFDYVILDEASQISMPVALGPLRYGNRFIMVGDHYQLPPLVKNDAARLGGLEESLFKTFCEKHPESVAELTLQYRMCGDIVTLSNFLIYDNKLKCGNNEVFAQSLELPMPEALSRYRNESANSKQWLEDILEPTRKVVFLNYDNCPDIIEQSEKDNITNHGEAELTLQCVEGMLLSGVPCEDIGVMTLYRAQLRLLKKIFNKNVYDGLEILTADQFQGRDKKCIIISMVRRNSQLNGGALLKELRRVNVAMTRAKSKLIIIGSKSTIGSVPEIKSFVNLLEERNWVYTMCKDALYKYKFPDRSNAIDEARKGCGKRTGAKPITSKSKFVSDKPIIKEILQEYES
notes: Dna2 nuclease-helicase, Saccharomyces cerevisiae, wild type; Wild-type protein; In DNA Curtains it was labelled with anti-FLAG quantum dots; in MST with the His-tag labelling kit RED-tris-NTA; also called wild-type Dna2; (His)6-tagged Dna2; source: over-expressed in yeast, purified (Ni-NTA, anti-FLAG-M2 resin)
With B3, the “recruitment relative to wild-type RPA” value in experiment [2] was 80%.

B4: dna2-AC (dna2-D357A,E358A,D361A,D362A,E366A), FLAG-His6-tagged (enzyme, S. cerevisiae, UniProt P38859 1-1522, looked up)
chain: B3 chain with D357A, E358A, D361A, D362A, E366A
notes: Dna2, Saccharomyces cerevisiae, with all acidic residues of the second acidic patch (amino acid 355-366) changed to alanine; source: over-expressed in yeast, purified (Ni-NTA, anti-FLAG-M2 resin)
For B4, the “fold less recruitment than wild-type Dna2” value with RPA–GFP is approximately 2 fold.
